A word on the pKd: it is the negative decadic logarithm of the Kd, by convention in mol/L. Read a low pKd as a high Kd.

pKd: −log10 of the molar value.

This series concerns PUS7 (pseudouridine synthase 7) (Homo sapiens). Description: EMSA. Particulars: 1 mM Mg2+; 40 nM RNA, 0-500 nM PUS7; none (unmodified IVT, U250); 10 mM Tris-HCl pH 7.5, 100 mM KCl, 1 mM MgCl2, 0.1 mM DTT, 5% glycerol; 37 °C 30 min; gel 4-20% TBE at 4 °C. A general note: Mobility shift assays separate free from complexed probe on a gel.

For the substance in vitro-transcribed 7SK snRNA, the pKd was 7.01.

Source of the values: paper PMC12575831.
